In paper PMC7005798 (2020):

Molecular target: C3b (human, UniProt P01024 23-667; P01024 749-1663)
Assay: SPR

C3b, sequence (P01024 23-667, chain 1 of 2): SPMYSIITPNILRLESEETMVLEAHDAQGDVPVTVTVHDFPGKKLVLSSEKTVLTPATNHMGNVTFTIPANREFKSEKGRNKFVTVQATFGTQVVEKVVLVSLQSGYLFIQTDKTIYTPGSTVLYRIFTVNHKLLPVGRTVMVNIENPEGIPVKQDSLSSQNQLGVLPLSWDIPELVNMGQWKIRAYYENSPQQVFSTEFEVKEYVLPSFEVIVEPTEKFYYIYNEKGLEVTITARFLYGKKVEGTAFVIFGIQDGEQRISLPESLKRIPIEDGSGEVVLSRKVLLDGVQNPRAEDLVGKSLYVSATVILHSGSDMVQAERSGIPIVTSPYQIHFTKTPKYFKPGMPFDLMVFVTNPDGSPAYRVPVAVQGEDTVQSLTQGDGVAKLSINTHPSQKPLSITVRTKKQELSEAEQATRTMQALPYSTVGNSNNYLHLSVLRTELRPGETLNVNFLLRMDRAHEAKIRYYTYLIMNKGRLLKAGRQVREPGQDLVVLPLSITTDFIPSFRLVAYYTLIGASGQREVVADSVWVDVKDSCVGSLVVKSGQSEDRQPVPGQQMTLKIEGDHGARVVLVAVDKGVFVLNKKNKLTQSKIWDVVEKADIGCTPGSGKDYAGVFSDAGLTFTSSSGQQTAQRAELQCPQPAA
C3b, sequence (P01024 749-1663, chain 2 of 2): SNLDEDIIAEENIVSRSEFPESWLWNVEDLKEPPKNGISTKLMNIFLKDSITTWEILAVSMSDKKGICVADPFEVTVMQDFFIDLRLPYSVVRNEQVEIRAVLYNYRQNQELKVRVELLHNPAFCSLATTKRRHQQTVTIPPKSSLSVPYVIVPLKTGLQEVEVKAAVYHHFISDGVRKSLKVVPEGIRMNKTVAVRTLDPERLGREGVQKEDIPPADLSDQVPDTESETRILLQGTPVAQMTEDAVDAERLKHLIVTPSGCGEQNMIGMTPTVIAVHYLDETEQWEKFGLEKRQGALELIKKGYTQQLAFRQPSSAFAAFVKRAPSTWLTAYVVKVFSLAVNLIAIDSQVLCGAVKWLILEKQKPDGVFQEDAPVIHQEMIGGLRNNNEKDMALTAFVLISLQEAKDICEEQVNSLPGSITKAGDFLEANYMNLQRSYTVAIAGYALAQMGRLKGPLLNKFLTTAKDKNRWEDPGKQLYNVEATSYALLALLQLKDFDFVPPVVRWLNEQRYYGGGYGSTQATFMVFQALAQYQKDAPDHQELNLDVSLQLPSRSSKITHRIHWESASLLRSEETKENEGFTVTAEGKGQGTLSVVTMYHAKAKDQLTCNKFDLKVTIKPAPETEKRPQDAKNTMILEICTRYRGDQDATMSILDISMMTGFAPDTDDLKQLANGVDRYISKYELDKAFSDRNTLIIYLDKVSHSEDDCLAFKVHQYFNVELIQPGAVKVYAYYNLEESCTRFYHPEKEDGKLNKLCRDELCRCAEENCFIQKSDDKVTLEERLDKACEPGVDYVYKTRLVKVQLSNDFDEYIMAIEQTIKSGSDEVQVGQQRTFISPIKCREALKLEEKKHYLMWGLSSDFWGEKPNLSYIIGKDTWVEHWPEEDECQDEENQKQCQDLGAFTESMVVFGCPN

B1: Recombinant Factor H-Related Protein 4 (FHR-4), FHR-4B variant (natural protein)
chain: EVKPCDFPEIQHGGLYYKSLRRLYFPAAAGQSYSYYCDQNFVTPSGSYWDYIHCTQDGWSPTVPCLRTCSKSDIEIENGFISESSSIYILNKEIQYKCKPGYATADGNSSGSITCLQNGWSAQPICIKFCDMPVFENSRAKSNGMRFKLHDTLDYECYDGYEISYGNTTGSIVCGEDGWSHFPTCYNSSEKCGPPPPISNGDTTSFLLKVYVPQSRVEYQCQSYYELQGSNYVTCSNGEWSEPPRCIHPCIITEENMNKNNIQLKGKSDIKYYAKTGDTIEFMCKLGYNANTSVLSFQAVCREGIVEYPRCE
A Kd of 1.1 µM was found for B1 in this work.
